pKd: −log10 of the molar value.
Biological target: ROP18 in total lysate antigen of T. gondii RH (RH Ag) (Toxoplasma gondii RH strain) (UniProt Q2PAY2)
Test: direct ELAA (plate-based aptamer binding)
Conditions: 50 ug/mL RH Ag coated; aptamer 50-500 nM; Direct ELAA: antigen coated in carbonate pH 9.6 overnight 4 C; 1% BSA block; biotin-aptamer in PBS, 0.5% glucose, 0.1% albumin, 1 M MgCl2 (so in the source), 1 h …

Sequence of UniProt Q2PAY2 (Q2PAY2 whole entry): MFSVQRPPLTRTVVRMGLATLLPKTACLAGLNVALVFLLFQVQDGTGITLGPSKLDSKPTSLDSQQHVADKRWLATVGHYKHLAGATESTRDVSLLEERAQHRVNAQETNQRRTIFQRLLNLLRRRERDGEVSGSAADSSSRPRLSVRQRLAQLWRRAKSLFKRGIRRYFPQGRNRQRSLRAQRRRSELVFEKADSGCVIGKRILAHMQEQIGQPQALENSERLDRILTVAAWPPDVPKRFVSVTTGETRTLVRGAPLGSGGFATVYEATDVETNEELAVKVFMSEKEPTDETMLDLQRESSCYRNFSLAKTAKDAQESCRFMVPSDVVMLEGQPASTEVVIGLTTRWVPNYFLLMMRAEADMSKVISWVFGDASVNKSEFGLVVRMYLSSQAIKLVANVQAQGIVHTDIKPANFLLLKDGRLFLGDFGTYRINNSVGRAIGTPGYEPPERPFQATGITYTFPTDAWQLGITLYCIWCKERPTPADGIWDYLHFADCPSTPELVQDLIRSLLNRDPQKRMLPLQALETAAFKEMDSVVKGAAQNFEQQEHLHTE

| Sequence | pKd |
| --- | --- |
| CGCACCGATCCGGTGTTAATCTCGACGTCCCTTAAGTTTG [AP002] | 7.01 |
| TCCTGGCAGCGCTTTTGCTTGTTTGCTCTCGTACCTGTCC [AP001] | 7.20 |
